Measurements taken from patent US20190161551A1 (Regeneron, published 2019).

Legend:
[1] = target: T1, mouse TrkB extracellular domain expressed with a C-terminal myc-myc-hexahistidine tag (mouse, UniProt P15209 32-429); assay: SPR, mAb captured (anti-hFc), 25C
T1 construct: also called mTrkB.mmH; mTRKB.mmH
Method: (§1) Equilibrium dissociation constants (KD values) for TrkB binding to purified anti-TrkB monoclonal antibodies were determined using a real-time surface plasmon resonance biosensor using a Biacore 4000 instrument. All binding studies were performed in 10 mM Hepes pH 7.4, 150 mM NaCl, 3 mM EDTA, and 0.05% v/v Surfactant Tween-20 (HBS-ET running buffer) at 25° C. and 37° C. […] Binding studies were performed on following TrkB reagents; human TrkB extracellular domain expressed with a C-terminal myc-myc-hexahistidine tag (hTRKB.mmH; SEQ ID NO: 76; Accession number NP_001018074.1), mouse TrkB extracellular domain expressed with a C-terminal myc-myc-hexahistidine tag (mTRKB.mmH; SEQ ID NO: 79; Accession number NP_001020245), rat TrkB extracellular domain expressed with a C-terminal myc-myc-hexahistidine tag (rTRKB.mmH; SEQ ID NO: 84; Accession number NP_036863.1), and human TrkB extracellular domain expressed with a C-terminal mouse IgG2a Fc tag (hTrkB-mFc; SEQ ID NO: 77; Accession number NP_001018074.1). […] Kinetic association (kₐ) and dissociation (kd) rate constants were determined by fitting the real-time binding sensorgrams to a 1:1 binding model with mass transport limitation using Scrubber 2.0c curve-fitting software. Binding dissociation equilibrium constants (KD) and dissociative half-lives (t½) were calculated from the kinetic rate constants as: […]

[2] = target: T2, rat TrkB extracellular domain expressed with a C-terminal myc-myc-hexahistidine tag (rat, UniProt Q63604 32-429); assay: SPR, mAb captured (anti-hFc), 25C
T2 construct: also called rTrkB.mmH; rTRKB.mmH
Method: as §1

[3] = target: T3, human TrkB extracellular domain expressed with a C-terminal myc-myc-hexahistidine tag (human, UniProt Q16620 32-430); assay: SPR, mAb captured (anti-hFc), 25C
T3 construct: also called hTrkB.mmH; hTRKB.mmH
Method: as §1

[4] = target: T4, human TrkB extracellular domain expressed with a C-terminal mouse IgG2a Fc tag (human); assay: SPR, mAb captured (anti-hFc), 25C
T4 construct: also called hTrkB-mFc; hTrkB.mFc
Method: as §1

[5] = target: T4, human TrkB extracellular domain …; assay: BLI Octet, captured hTrkB.mFc saturated with hNT-4, 300 nM mAb
Method: (§2) Blocking of anti-human TrkB or anti-mouse TrkB antibodies from binding to TrkB by BDNF or NT-4 was evaluated using a real-time bio-layer interferometry (BLI) based Octet HTX instrument. The entire study was performed in 10 mM HEPES pH 7.4, 300 mM NaCl, 3 mM EDTA, 1 mg/mL BSA, 0.02% NaN3 and 0.05% v/v Surfactant Tween-20 (HBS-EBT running buffer) at 25° C. All the samples were dispensed in a 384 tilted well plate and the plate was placed on the orbital shaker with the shake speed of 1000 rpm. hTrkB.mFc was captured on anti-mFc (AMC) Octet sensors while hTrkB.hFc or mTrkB.hFc were captured on anti-hFc (AHC) Octet sensors by dipping in wells containing 10 μg/mL of TrkB reagents for 2 minutes. hTrkB.mFc or hTrkB.hFc captured Octet biosensors were saturated by dipping in wells containing 20 nM of BDNF, hNT-4, or mNT-4 for 2 minutes followed by dipping Octet biosensors in wells containing 300 nM of different TrkB mAbs for 4 minutes. Binding of TrkB mAbs to the complex of TrkB and BDNF, hNT-4, or mNT-4 was determined using Scrubber 2.0c analysis software.

mouse TrkB.hFc [6] = target: T5, mouse TrkB.hFc (mouse); assay: BLI Octet, captured mTrkB.hFc, 300 nM mAb, no ligand
T5 construct: also called mTrkB.hFc; mTrkB-hFc
Method: as §2

mouse TrkB.hFc [7] = target: T5, mouse TrkB.hFc; assay: BLI Octet, captured mTrkB.hFc, 300 nM mAb (BDNF run)
Method: Blocking of BDNF or NT-4 from binding to TrkB by anti-human TrkB or anti-mouse TrkB antibodies was evaluated using a real-time bio-layer interferometry (BLI) based Octet HTX instrument. The entire study was performed in 10 mM HEPES pH 7.4, 300 mM NaCl, 3 mM EDTA, 1 mg/mL BSA, 0.02% NaN3 and 0.05% v/v Surfactant Tween-20 (HBS-EBT running buffer) at 25° C. All the samples were dispensed in a 384 tilted well plate and the plate was placed on the orbital shaker with the shake speed of 1000 rpm. hTrkB.mFc was captured on anti-mFc (AMC) Octet sensors while hTrkB.hFc or mTrkB.hFc were captured on anti-hFc (AHC) Octet sensors by dipping in wells containing 10 μg/mL of TrkB reagents for 2 minutes. hTrkB.mFc or hTrkB.hFc captured Octet biosensors were saturated by dipping in wells containing 300 nM of different TrkB mAbs for 4 minutes followed by dipping Octet biosensors in wells containing 20 nM of BDNF, hNT-4, or mNT-4 for 2 minutes. Binding of BDNF, hNT-4, or mNT-4 to the complex of TrkB and different TrkB mAbs was determined using Scrubber 2.0c analysis software.

T2 sequence (Q63604 other isoform, or with tags, fused parts or gaps): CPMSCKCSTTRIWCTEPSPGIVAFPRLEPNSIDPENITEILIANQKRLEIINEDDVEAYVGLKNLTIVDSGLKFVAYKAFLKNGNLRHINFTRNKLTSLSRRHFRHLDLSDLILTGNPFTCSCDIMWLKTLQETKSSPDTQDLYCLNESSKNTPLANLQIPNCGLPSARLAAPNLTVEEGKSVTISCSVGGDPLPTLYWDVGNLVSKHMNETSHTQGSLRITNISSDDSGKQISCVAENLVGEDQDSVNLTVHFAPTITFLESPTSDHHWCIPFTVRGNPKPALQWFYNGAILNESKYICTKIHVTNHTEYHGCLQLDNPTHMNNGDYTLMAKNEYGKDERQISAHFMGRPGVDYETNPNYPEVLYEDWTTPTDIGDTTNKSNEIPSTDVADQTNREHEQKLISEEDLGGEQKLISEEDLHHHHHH
T1 sequence (P15209 other isoform, or with tags, fused parts or gaps): as the sequence (Q63604 other isoform, or with tags, fused parts or gaps) above, with M3T, T9S, T10A, I32V, K63R, G84S, T153M, I185L, T394S counted along it
T5 sequence (chain, as listed by the source limits assumed): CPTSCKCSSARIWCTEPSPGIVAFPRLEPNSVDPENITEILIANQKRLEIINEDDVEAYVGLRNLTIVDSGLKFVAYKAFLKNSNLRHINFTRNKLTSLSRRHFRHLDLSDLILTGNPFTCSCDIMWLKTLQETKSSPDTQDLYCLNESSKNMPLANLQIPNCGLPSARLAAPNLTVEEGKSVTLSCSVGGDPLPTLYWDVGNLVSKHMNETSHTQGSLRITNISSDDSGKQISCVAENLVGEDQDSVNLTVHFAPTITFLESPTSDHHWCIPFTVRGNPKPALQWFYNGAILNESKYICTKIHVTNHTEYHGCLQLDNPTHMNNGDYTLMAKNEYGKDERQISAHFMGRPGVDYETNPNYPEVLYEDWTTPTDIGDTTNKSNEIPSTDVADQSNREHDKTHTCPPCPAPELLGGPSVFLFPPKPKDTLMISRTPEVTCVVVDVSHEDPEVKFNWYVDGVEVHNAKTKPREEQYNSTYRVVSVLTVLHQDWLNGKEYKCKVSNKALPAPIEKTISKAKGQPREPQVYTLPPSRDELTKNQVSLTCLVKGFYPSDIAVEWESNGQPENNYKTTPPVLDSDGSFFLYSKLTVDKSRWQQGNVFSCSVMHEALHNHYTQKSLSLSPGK
T3 sequence (Q16620 other isoform, or with tags, fused parts or gaps): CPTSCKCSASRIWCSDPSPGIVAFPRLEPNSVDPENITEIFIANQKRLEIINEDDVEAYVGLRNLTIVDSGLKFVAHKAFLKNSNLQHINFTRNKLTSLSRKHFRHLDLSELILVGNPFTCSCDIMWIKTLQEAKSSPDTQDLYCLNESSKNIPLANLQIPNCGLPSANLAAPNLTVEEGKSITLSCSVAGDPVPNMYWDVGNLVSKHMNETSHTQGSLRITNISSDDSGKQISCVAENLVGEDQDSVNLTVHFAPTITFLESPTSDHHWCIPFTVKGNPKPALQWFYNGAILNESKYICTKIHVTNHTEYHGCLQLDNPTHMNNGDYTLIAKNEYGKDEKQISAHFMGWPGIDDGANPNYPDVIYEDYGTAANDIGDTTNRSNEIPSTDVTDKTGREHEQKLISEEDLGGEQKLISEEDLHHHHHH
T4 sequence (chain, as listed by the source limits assumed): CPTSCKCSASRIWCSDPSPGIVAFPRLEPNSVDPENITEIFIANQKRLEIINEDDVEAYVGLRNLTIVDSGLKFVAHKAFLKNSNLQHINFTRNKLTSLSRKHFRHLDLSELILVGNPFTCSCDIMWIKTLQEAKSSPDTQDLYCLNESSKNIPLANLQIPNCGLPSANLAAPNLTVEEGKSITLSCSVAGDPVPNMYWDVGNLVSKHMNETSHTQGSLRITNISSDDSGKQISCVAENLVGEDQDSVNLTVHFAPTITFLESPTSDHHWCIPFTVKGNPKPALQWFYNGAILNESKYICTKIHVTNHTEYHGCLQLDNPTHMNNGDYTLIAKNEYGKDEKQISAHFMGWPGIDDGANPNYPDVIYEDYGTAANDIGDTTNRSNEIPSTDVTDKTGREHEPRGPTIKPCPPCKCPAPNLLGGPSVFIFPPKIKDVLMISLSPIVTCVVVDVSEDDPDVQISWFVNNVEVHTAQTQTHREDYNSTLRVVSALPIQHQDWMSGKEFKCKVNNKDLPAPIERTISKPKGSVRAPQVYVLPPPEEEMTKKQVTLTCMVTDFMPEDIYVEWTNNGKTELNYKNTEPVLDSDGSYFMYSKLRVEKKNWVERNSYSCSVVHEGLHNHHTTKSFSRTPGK

Row | Binder | 100 nM mTrkB.mmH Bound (RU) [1] [RU] | 100 nM rTrkB.mmH Bound (RU) [2] [RU] | 100 nM hTrkB.mmH Bound (RU) [3] [RU] | Kd [3] [nM] | koff [3] [s⁻¹] | kon [3] [M⁻¹ s⁻¹] | t½ [3] [min] | 100 nM hTrkB-mFc Bound (RU) [4] [RU] | Kd [4] [nM] | koff [4] [s⁻¹] | kon [4] [M⁻¹ s⁻¹] | t½ [4] [min] | antibody Binding (nm) [5] [nm] | antibody Binding (nm) (mouse TrkB.hFc [6]) | mAb Binding (nm) (mouse TrkB.hFc [7]) | binding result [1]
1 | H4H9814P (antibody, human IgG4 S228P, kappa, V domains shown, Fully human anti-human TrkB agonist antibody, human IgG4 Fc; also called H4H9814P-L1) VH: EVQLVESGGGLVQPGGSLKLSCTASGFTFSGSVIHWVRQASGKGLEWIGRIRNKANSYATAYGASVTGRFTISRDDSKNTAYLQMNSLKTEDTAVYYCTFPGVVGRGGFDYWGQGTLVTVSS VL: DIVMTQSPDSLAVSLGEGATINCMSSQSVLFSSNNKNYLAWYQQKPGQPPKLLFYWASTRESGVPDRFGGSGSGTDFSLTINSLQTEDVAVYYCLQYYSIPWTFGQGTKVEIKR | -2 | -1 | 63 | 0.545 | 0.000686 | 1.26e+06 | 17 | 69 | 0.0311 | 5.95e-05 | 1.91e+06 | 194 | 0.23 |  |  | 
2 | H4H9780P (antibody, human IgG4 S228P, kappa, V domains shown, Fully human anti-human TrkB agonist antibody, human IgG4 Fc; also called H4H9780P-L1) VH: QVQLVESGGGVVQPGRSLRLSCAASGFSFSSFGMHWVRQAPGKGLEWVSVISYDGINTYYTDSVKGRFTISRDNSKNTLYLQMNGLRAEDTALYYCVQGSIGTVFEYWGQGTLVTVSS VL: DIQMTQSPSSLSASVGDRVTITCRASQGISNYLAWYQQKPGKVPKLLIYAASTLQSGVPSRFGGSGSGTDFTLTISSLQPEDVATYYCQKYTSAPFTFGPGTKVDIKR | -1 | -1 | 20 | 21.7 | 0.000867 | 40000 | 13 | 14 | 4.48 | 0.000168 | 37400 | 69 | 0.2 |  |  | 
3 | M2aM14179N (antibody, mouse IgG2a, kappa, V domains shown, Anti-mouse TrkB antibody from hybridoma, mouse IgG2a Fc; also called surrogate anti-mouse TrkB antibody) VH: EVQLQQSGPELVKPGASVKISCKASGYTLTDYYMNWVKQSHGKSLEWIGDINPNNGGTSYNQKFKGKATLTVDKSSSTAYMELRSLTSEDSAVYYCARGAYYSNYFDYWGQGTTLTVSS VL: DIVMSQSPSSLAVSAGEKVTMSCKSSQSLLNSRTRKNYLAWYQQKPGQSPKLLIYWASTRESGVPDRFTGSGSGTDFTLTISSVQAEDLAVYYCKQSYILFTFGSGTQLEIKR |  |  |  |  |  |  |  |  |  |  |  |  |  | 0.42 | 0.42 | 
4 | H1M8037C (antibody, mouse IgG1, kappa, V domains shown, captured by anti-mFc in SPR; also called Comparator; comparator anti-TrkB monoclonal antibody) VH: QVQLVQSGAEVKKPGASVKVSCKASGYTFTNYDIIWVRQAPGQGLEWMGYINPYNDGTKYNEKFKGRVTMTRDTSTSTVYMELSSLRSEDTAVYYCARLLKYRRFRYYAIDYWGQGTTVTVSS VL: DIQMTQSPSSLSASVGDRVTITCRTSENVYSNLAWYQQKPGKAPKLLIYAASNLQSGVPSRFSGSGSGTDYTFTISSLQPEDIATYYCQHFWGSPFTFGQGTKLEIKR |  |  |  |  |  |  |  |  |  |  |  |  |  | 0.42 | 0.42 | 

Results, then the binder that gave them:

Row | 100 nM mTrkB.mmH Bound (RU) [1] [RU] | 100 nM rTrkB.mmH Bound (RU) [2] [RU] | 100 nM hTrkB.mmH Bound (RU) [3] [RU] | Kd [3] [nM] | koff [3] [s⁻¹] | kon [3] [M⁻¹ s⁻¹] | t½ [3] [min] | 100 nM hTrkB-mFc Bound (RU) [4] [RU] | Kd [4] [nM] | koff [4] [s⁻¹] | kon [4] [M⁻¹ s⁻¹] | t½ [4] [min] | antibody Binding (nm) [5] [nm] | antibody Binding (nm) (mouse TrkB.hFc [6]) | mAb Binding (nm) (mouse TrkB.hFc [7]) | binding result [1] | Binder
5 |  |  |  |  |  |  |  |  |  |  |  |  |  | 0.42 | 0.42 |  | M2aM14173N (antibody, mouse IgG2a, kappa, V domains shown, Anti-mouse TrkB antibody from hybridoma, mouse IgG2a Fc; also called surrogate anti-mouse TrkB antibody) VH: NVSLVESGGGSVKPGGSLQLSCAASGFTFSSSAMSWIRQTPEMRLEWVATISDRGSYTYYPDSVEGRFTISRDNAKNILYLQMSHLMSEDTAMYYCARGKGEKAYYTAFFAYWGQGSLVTVSA VL: DIQMTQSPASLSASVGETVTITCRASENIYSYLAWYQQKPGKSPHLLVHNAETLAEGVPSRFSGSGSGPQFSLKINSLQPGDSGTYYCQHHYSSPWTFGGGTKLEIKR
6 | 0 | 0 | 30 | 13.8 | 0.000845 | 61400 | 14 | 25 | 1.22 | 7.98e-05 | 65200 | 145 | 0.24 |  |  | no binding (tested: 100 nM) | H4H9816P2 (antibody, human IgG4 S228P, kappa, V domains shown, Fully human anti-human TrkB agonist antibody, human IgG4 Fc; also called H4H9816P-L1) VH: EVQLVESGGGLVQPGGSLTLSCAASGFNFRDYEMIWVRQTPGKGLEWISYISNSGYTIYYADSVKGRFTISRDNARNSIYLQVNSLRAEDTAVYYCSRRTTMIRGIRAYYYYGLDVWGQGTTVTVSS VL: not shown
